Measured values published in PMC10920896 (2024).

Tests used:
[1] = biological target: T1, biotinylated murine wildtype gp130 (D1-D6) with C-terminal biotin acceptor peptide and hexa-histidine tag (murine, UniProt Q00560 23-617, biotin on the C-terminal biotin acceptor peptide (in vitro, BirA)); assay: SPR; equilibrium fit
T1 chain: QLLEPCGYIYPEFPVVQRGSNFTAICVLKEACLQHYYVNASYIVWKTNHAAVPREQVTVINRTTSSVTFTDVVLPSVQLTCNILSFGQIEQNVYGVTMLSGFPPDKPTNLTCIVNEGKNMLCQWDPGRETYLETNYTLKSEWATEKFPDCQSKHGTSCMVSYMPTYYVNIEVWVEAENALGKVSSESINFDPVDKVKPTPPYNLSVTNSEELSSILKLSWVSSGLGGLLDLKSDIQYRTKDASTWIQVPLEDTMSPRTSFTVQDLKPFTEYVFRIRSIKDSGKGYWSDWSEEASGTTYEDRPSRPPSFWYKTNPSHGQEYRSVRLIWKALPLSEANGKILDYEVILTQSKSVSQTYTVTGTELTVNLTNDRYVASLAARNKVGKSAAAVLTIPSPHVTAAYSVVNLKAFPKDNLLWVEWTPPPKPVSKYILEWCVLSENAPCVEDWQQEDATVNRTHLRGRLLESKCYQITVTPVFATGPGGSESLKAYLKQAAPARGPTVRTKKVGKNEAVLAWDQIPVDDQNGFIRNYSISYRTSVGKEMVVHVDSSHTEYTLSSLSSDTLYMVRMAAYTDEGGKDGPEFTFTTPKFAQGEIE

[2] = biological target: T2, biotinylated murine gp130_(P496L) (D1-D6) with C-terminal biotin acceptor peptide and hexa-histidine tag (murine, UniProt Q00560 23-617, P496L, biotin on the C-terminal biotin acceptor peptide (in vitro, BirA)); assay: SPR; equilibrium fit
[3] = biological target: T1, biotinylated murine wildtype gp130 …; assay: SPR; kinetic fit
[4] = biological target: T2, biotinylated murine gp130_(P496L) …; assay: SPR; kinetic fit
[5] = biological target: T1, biotinylated murine wildtype gp130 …; assay: SPR
[6] = biological target: T2, biotinylated murine gp130_(P496L) …; assay: SPR

Kd [1]: 8.5 nM
Kd [2]: 11 nM
Kd [3]: 1.45 nM
Kd [4]: 1.8 nM
koff [5]: 0.0023 s⁻¹
koff [6]: 0.0027 s⁻¹
B1: HypIL-11 (human IL-11 fused by a short linker to domains D2 and D3 of IL-11Rα, single chain) (other)
chain: PPARPVVSCQAADYENFSCTWSPSQISGLPTRYLTSYRKKTVLGADSQRRSPSTGPWPCPQDPLGAARCVVHGAEFWSQYRINVTEVNPLGASTRLLDVSLQSILRPDPPQGLRVESVPGYPRRLRASWTYPASWPCQPHFLLKFRLQYRPAQHPAWSTVEPAGLEEVITDAVAGLPHAVRVSARDFLDAGTWSTWSPEAWGTPSTPGPPPGPPRVSPDPRAELDSTVLLTRSLLADTRQLAAQLRDKFPADGDHNLDSLPTLAMSAGALGALQLPGVLTRLRADLLSYLRHVQWLRRAGGSSLKTLEPELGTLQARLDRLLRRLQLLMSRLALPQPPPDPPAPPLAPPSSAWGGIRAAHAILGGLHLTLDWAVRGLLLLKTRL
